Experiment [1] concerns exposed pulp of rat maxillary first molars. Put plainly: Direct pulp capping experiment using S100-A7 and S100-A7 reacted with MMP20. The experiment is classed as in vivo. As to conditions: rat molar, gelatin sponge with 20 μl of 1 μg/ml in PBS, 4 weeks after pulp capping, n=3. As for the experimental part: Eight-week-old male Wistar rats were injected intraperitoneally with pentobarbital sodium (SomnoPentyl (Trade Mark), Kyoritsu Seiyaku Corporation, Tokyo) (30 mg/kg) as general anesthesia, and carprofen (Rimadyl®, Pfizer, USA) (3 mg/kg) was administered for pain relief. The tooth to be treated was isolated by rubber dam dry field technique, and a surface and surrounding tissue of the tooth were cleaned with an alcohol-soaked cotton ball, and then a cavity was formed using the following method based on the report by Komichi et al. [Non Patent Literature 1]. […] Maxillas, including the test teeth, were then resected and soft tissues were removed, and evaluated by the following methods. […]
Image analysis using the micro-CT (R-mCT2™M, Rigaku Corporation, Tokyo) was performed for quantitative evaluation of the formed tertiary dentin in the samples after the direct pulp capping. […] A CT value equivalent to that of the primary dentin was set as a threshold for extracting the tertiary dentin, and the area of the newly formed tertiary dentin was calculated from a binarized image. The area of the newly formed tertiary dentin was measured in each section, and the volume of the newly formed tertiary dentin was calculated by summing all of the measurements. […]

Another experiment relates to pulp cells. The settings on record: reported in Non Patent Literature 1; cited from earlier work.
A further experiment deals with exposed pulp. The settings on record: rat in vivo, reported in Non Patent Literature 1; cited from earlier work.

B1: S100-A7: Protein S100-A7 (PROSPEC, Israel), human-derived Protein S100 (protein, UniProt P31151 2-101, looked up)
Protein S100-A7: SNTQAERSIIGMIDMFHKYTRRDDKIEKPSLLTMMKENFPNFLSACDKKGTNYLADVFEKKDKNEDKKIDFSEFLSLLGDIATDYHKQSHGAAPCSGGSQ
Turning to B1, in experiment [1], the “tertiary dentin formation (micro-CT analysis)” value is on record as “completely covering the exposed region of pulp”. Moreover, in the experiment on pulp cells, the “effect on pulp cells in vitro” value was “activates proliferation, differentiation, and mineralization abilities”. In the experiment with exposed pulp, the “tertiary dentin induction in the direct pulp capping experiment” value was “completely covers the surface of the exposed pulp”.

The values above are taken from patent publication US20250084126A1, “PEPTIDE AND COMPOSITION” (OSAKA UNIVERSITY, priority 2021, published 2025).
